Source: publication PMC6399351, “Cationic Intrinsically Disordered Antimicrobial Peptides (CIDAMPs) Represent a New Paradigm of Innate Defense with a Potential for Novel Anti-Infectives” (Scientific Reports, 2019)
Read-outs that look alike come from different tables or passages of the source. Ends that are not written are not given here.

How the values were obtained:
[1] = system: Klebsiella pneumonia ATCC 700603; conditions: MDR strain; CLSI, Mueller–Hinton broth, 5 × 10^5 CFU/mL, 18 h 37 °C, by CO-ADD
C. albicans ATCC 24433 = test: CFU assay of antimicrobial activity; format: cell-based, Candida albicans; conditions: 10 mM NaP
Experimental: Bacteria were cultivated in either brain heart infusion medium (BHI), lysogeny broth (LB) or tryptic soy broth (TSB)[88]. If not otherwise stated, bacteria were incubated under shaking conditions (37 °C at 170 rpm) or as indicated on the ATCC- or DSM-data sheets. Candida albicans was cultured for 3 days on Yeast Extract-Peptone Dextrose (YPD) agar at 30 °C and yeast suspensions at appropriate density were treated with CIDAMPs as indicated.
(§1) All purified peptides and recombinant proteins were applied using a colony forming unit (CFU) assay in different media. Bacteria were grown to early log-phase in BHI, washed either with 10 mM Na-P, pH 7.4/1% TSB or pH 5.5/1% TSB, or pH 5.5 without TSB or BHI, and adjusted to a concentration of 10^4–10^5 colony forming units (CFU)/ml. For cell number control, 100 µl aliquots were diluted 1:10, 1:100 and 1:1000 and plated in duplicates on BHI agar plates. To 100 µl aliquots of the bacteria, suspended in the respective medium (10 mM Na-P buffer pH 7,0–7,4/ 1% (w/v) TSB; 10 mM Na-P buffer pH 5,5/ 1% (w/v) TSB; 10 mM Na-P buffer pH 7,0–7,4/ 1% (w/v) TSB pH 7,0–7,4/ 0,25% (w/v) glucose; 10 mM Na-P buffer pH 5,5/ 0,25% (w/v) glucose, respectively), 10 µl of a solution of the peptide or protein (two-fold dilutions, from 300 µg/ml or 150 µg/ml down to 19 ng/ml), dissolved in 0.01% (v/v) acetic acid, were added.
(§2) Then bacteria were incubated for 2 h at ambient temperature, if not otherwise stated. 10 µl of 0.01% (v/v) acetic acid, added to 100 µl aliquots of the bacteria in the respective medium, served as negative control. From each test, 1:10 and 1:100 dilutions were generated and plated as duplicates of 100 µl aliquots on BHI agar plates. After 16 h incubation at 37 °C, CFU were counted using a colony counter (Bio Kobe, Japan) and expressed as mean of the duplicate estimation to achieve a complete dose-response curve. All experiments were performed at serial dilutions in a concentration range of 100 µg/mL −25 ng/mL for recombinant HRNR fragments and 300 or 150 µg/mL–19 ng/mL for synthetic peptides.

P. aeruginosa ATCC 10145 = conditions: CFU assay
[2] = system: Proteus mirabilis ATCC 21100; conditions: CFU assay, 10 mM NaP, pH 6.0, 0.25% glucose
S. aureus ATCC 6538 = conditions: CFU assay, 10 mM NaP, pH 5.5, 0.25% glucose
[3] = system: Acinetobacter baumannii ATCC 19606; conditions: CFU assay, 10 mM NaP, pH 6.0, 0.25% glucose
[4] = system: Burkholderia cepacia ATCC 25416; conditions: CFU assay, 10 mM NaP, pH 5.5, 0.25% glucose
[5] = system: Cryptococcus neoformans ATCC 208821; test: CO-ADD MIC, antifungal assay (CLSI); format: cell-based; conditions: Yeast Nitrogen Base broth, 24 h 35 °C, by CO-ADD
Experimental: (§3) Fungi strains were cultured for 3 days on Yeast Extract-Peptone Dextrose (YPD) agar at 30 °C. A yeast suspension of 1 × 10^6 to 5 × 10^6 cells/mL (as determined by OD530) was prepared from five colonies. These stock suspensions were diluted with Yeast Nitrogen Base (YNB) broth to a final concentration of 2.5 × 10^3 CFU/mL. […] Plates were covered and incubated at 35 °C for 24 h without shaking.

[6] = system: Candida albicans ATCC 90028; test: CO-ADD MIC, antifungal assay (CLSI); format: cell-based; conditions: Yeast Nitrogen Base broth, 24 h 35 °C, by CO-ADD
Experimental: as §3

[7] = system: Streptococcus pyogenes ATCC 12344; test: CFU assay of antimicrobial activity; format: cell-based; conditions: 10 mM NaP, pH 6.0, 0.25% glucose
Experimental: as §1, with “[…];” for “10 mM Na-P buffer pH 5,5/ 1% (w/v) TSB;”
as §2

[8] = system: Streptococcus pneumoniae ATCC 33400; test: CFU assay of antimicrobial activity; format: cell-based; conditions: 10 mM NaP, pH 6.5, 0.25% glucose
Experimental: as §1, with “[…];” for “10 mM Na-P buffer pH 5,5/ 1% (w/v) TSB;”
as §2

[9] = system: Staphylococcus aureus ATCC 43300; conditions: MRSA; CLSI, Mueller–Hinton broth, 5 × 10^5 CFU/mL, 18 h 37 °C, by CO-ADD
[10] = system: Pseudomonas aeruginosa ATCC 27853; test: CO-ADD MIC, broth microdilution (CLSI); format: cell-based; conditions: Mueller–Hinton broth, 5 × 10^5 CFU/mL, 18 h 37 °C, by CO-ADD
Description: (§4) They were defined as the lowest peptide
(§5) Further details of the screening

[11] = system: Acinetobacter baumannii ATCC 19606; test: CO-ADD MIC, broth microdilution (CLSI); format: cell-based; conditions: Mueller–Hinton broth, 5 × 10^5 CFU/mL, 18 h 37 °C, by CO-ADD
Description: as §4, §5

E. coli ATCC 25922 = test: CO-ADD MIC, broth microdilution (CLSI); format: cell-based, Escherichia coli; conditions: Mueller–Hinton broth, 5 × 10^5 CFU/mL, 18 h 37 °C, by CO-ADD
Description: as §4, §5

[12] = system: Enterococcus faecium DSM 2146; conditions: CFU assay, 10 mM NaP, pH 5.5, 0.25% glucose
E. coli ATCC 11775 = test: CFU assay of antimicrobial activity; format: cell-based, Escherichia coli; conditions: 10 mM NaP
Experimental: as §1, §2

collagenase = conditions: 1 µg, 1 h 37 °C, SDS-PAGE, silver staining; at higher concentrations, n = 3
trypsin = format: in vitro ADME; conditions: for digestion by trypsin: 500 ng, 0.7 nM protease, pH 7.5, 15 h, Western blot
Description: (§6) All data shown are representatives (n = 3).
(§7) Lane 16 (“without protease”)
(§8) Table 1) have been directly applied. Note the presence of multiple bands, which originate
(§9) from oligomeric HRNR-complexes12. Data shown are representatives (n=3).

Lys-C = molecular target: T1, Lys-C (Lysobacter enzymogenes, UniProt Q7M135); test: Protease sensitivity testing of HRNR; format: in vitro ADME; conditions: n = 3
T1 construct: purchased Roche
Description: as §6
Thereafter samples were subjected to a
Data shown are representatives
as §7, §8, §9

KLK7 = molecular target: T2, KLK7 (Homo sapiens, UniProt P49862); test: Protease sensitivity testing of HRNR; format: in vitro ADME; conditions: 500 ng, 0.7 nM protease, pH 7.5, 15 h, Western blot, n = 3
T2 construct: purchased R&D
Experimental: as §7
(§10) Table 1) have been directly applied. Note the presence of multiple bands, which originate from oligomeric HRNR-complexes12. Data shown are representatives (n=3).
(§11) Supplementary Fi gur e 14 :
(§12) For SDS-PAGE analyses 250 ng of […]
(§13) manner, however in the absence of a protease. […]
(§14) have been directly applied. Note a marked decrease of PAD1-deiminated rHRNR2591-2684 electromobility (lane 16) relative to rHRNR2591-2684 (lane 17). D ata shown are represent a tives

KLK1 = molecular target: T3, KLK1 (Homo sapiens, UniProt P06870); test: Protease sensitivity testing of HRNR; format: in vitro ADME; conditions: 500 ng, 0.7 nM protease, pH 7.5, 15 h, Western blot, n = 3
T3 construct: purchased R&D
Experimental: as §7, §10, §11, §12, §13, §14

α-chymotrypsin = system: T4, α-chymotrypsin; test: Protease sensitivity testing of HRNR; format: in vitro ADME, human; conditions: 10 µg, 18 h 37 °C, 1 ng to 1 pg, SDS-PAGE and HRNR Western blot, n = 3
T4 construct: purchased Sigma
Description: as §6

thermolysin = thermolysin (Bacillus thermoproteolyticus, UniProt P00800); conditions: 10 µg, 18 h 37 °C, 10 ng to 10 pg, SDS-PAGE and HRNR Western blot, n = 3
enterokinase EKMax = molecular target: T5, enterokinase EKMax (Bos taurus, UniProt P98072); test: Protease sensitivity testing of HRNR; format: in vitro ADME; conditions: 10 µg, 18 h 37 °C, 0,1 U to 0,0001 U, SDS-PAGE and HRNR Western blot, n = 3
T5 construct: purchased Invitrogen
Description: as §6

[13] = 10 mM NaP, pH 5.5, 0.25% glucose

T1 sequence (Q7M135 whole entry): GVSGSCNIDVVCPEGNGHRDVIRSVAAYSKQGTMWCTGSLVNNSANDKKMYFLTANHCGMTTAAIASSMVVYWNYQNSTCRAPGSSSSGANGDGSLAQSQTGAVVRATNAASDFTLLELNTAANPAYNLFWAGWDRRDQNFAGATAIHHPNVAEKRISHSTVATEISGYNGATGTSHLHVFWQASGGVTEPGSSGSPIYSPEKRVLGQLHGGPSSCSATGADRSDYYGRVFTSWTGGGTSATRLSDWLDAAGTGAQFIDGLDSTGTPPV
Sequence of thermolysin (P00800 233-548): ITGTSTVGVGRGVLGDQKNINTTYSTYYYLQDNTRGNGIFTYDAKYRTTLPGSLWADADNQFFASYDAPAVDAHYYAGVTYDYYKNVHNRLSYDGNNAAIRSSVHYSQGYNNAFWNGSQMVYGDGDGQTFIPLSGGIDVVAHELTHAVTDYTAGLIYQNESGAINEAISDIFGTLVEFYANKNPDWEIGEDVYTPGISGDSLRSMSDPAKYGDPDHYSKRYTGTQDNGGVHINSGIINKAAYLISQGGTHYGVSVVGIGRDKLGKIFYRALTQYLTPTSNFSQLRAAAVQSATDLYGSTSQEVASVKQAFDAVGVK
T5 sequence (P98072 801-1035 limits assumed): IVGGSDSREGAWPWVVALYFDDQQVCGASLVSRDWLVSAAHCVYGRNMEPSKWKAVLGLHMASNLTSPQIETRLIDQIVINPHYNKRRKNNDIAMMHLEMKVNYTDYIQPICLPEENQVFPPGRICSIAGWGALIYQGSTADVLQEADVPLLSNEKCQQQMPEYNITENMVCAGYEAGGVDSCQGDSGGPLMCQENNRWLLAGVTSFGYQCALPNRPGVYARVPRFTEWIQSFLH
T2 sequence (P49862 30-253): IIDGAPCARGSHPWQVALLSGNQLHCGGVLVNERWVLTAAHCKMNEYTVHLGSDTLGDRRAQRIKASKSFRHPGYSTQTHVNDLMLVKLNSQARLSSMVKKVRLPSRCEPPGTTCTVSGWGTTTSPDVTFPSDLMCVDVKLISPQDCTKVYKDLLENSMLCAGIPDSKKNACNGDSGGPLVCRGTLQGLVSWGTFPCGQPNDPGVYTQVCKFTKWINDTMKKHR
T4 sequence (P17538 34-164 limits assumed, other chains not shown): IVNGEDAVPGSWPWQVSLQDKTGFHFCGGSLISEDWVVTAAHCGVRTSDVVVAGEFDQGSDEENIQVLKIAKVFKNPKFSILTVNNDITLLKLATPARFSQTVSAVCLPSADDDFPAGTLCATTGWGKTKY
T4 sequence (P17538 167-263 limits assumed, other chains not shown): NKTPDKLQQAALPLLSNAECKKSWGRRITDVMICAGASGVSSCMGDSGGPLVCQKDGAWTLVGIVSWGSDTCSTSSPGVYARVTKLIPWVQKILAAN
T3 sequence (P06870 25-262): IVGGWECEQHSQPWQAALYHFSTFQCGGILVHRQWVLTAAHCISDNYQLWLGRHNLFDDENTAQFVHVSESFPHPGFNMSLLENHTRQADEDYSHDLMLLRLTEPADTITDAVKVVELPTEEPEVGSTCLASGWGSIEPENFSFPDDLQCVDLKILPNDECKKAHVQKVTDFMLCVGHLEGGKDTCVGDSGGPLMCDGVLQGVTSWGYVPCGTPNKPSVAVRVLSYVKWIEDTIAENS

## GRHGSGLGHSSSHGQHGSGSGR [HR 1-18]
[1]
  Minimal inhibitory concentration (MIC): >32 µg/mL
C. albicans ATCC 24433; pH 5.5, 0.25% glucose
  LD90: 18.8 µg/mL
C. albicans ATCC 24433; pH 5.5, 1% TSB
  LD90: 150 µg/mL
P. aeruginosa ATCC 10145; [13]
  LD90: 0.038 µg/mL
P. aeruginosa ATCC 10145; 10 mM NaP, pH 5.5, 1% TSB
  LD90: 0.15 µg/mL
P. aeruginosa ATCC 10145; 10 mM NaP/0.25% glucose/pH 5.5, 1% TSB
  LD90: 1.18 µg/mL
P. aeruginosa ATCC 10145; 10 mM NaP/0.25% glucose/pH 5.5, 3% TSB
  LD90: 37.5 µg/mL
P. aeruginosa ATCC 10145; 10 mM NaP/0.25% glucose/pH 5.5, 10% TSB
  LD90: > 300 µg/mL
[2]
  LD90: >300 µg/mL
S. aureus ATCC 6538
  LD90: >300 µg/mL
[3]
  LD90: 1.18 µg/mL
[4]
  LD90: >300 µg/mL
[5]
  Minimal inhibitory concentration (MIC): >32 µg/mL
[6]
  Minimal inhibitory concentration (MIC): >32 µg/mL
[7]
  LD90: >300 µg/mL
[8]
  LD90: >300 µg/mL
[9]
  Minimal inhibitory concentration (MIC): >32 µg/mL
[10]
  Minimal inhibitory concentration (MIC): >32 µg/mL
[11]
  Minimal inhibitory concentration (MIC): >32 µg/mL
E. coli ATCC 25922
  Minimal inhibitory concentration (MIC): >32 µg/mL
[12]
  LD90: 150 µg/mL
E. coli ATCC 11775; pH 5.5, 1% TSB
  LD90: >300 µg/mL

B1: rHRNR2591–2684: recombinant HRNR fragment (protein, UniProt Q86YZ3 2591-2684, looked up, fragment)
chain: SQHGSGSGHSSGYGQHGSRSGQSSRGERHGSSSGSSSHYGQHGSGSRQSSGHGRQGSGSGQSPSRGRHGSGLGHSSSHGQHGSGSGRSSSRGPY
C. albicans ATCC 24433; pH 5.5, 0.25% glucose
  LD90: 0.39 µg/mL
  LD100: 6.25 µg/mL
P. aeruginosa ATCC 10145; [13]
  LD90: 0.025 µg/mL
  LD100: 0.1 µg/mL
collagenase
  digestion by collagenase: sensitivity
trypsin; n = 3
  digestion by trypsin: digest
Lys-C; 1 µg, 1 h 37 °C, SDS-PAGE, silver staining, at higher concentrations
  digestion by Lys C: sensitivity
E. coli ATCC 11775; pH 5.5, 0.25% glucose
  LD90: 0.2 µg/mL
  LD100: >100 µg/mL

B2: PAD1-deiminated rHRNR2591-2684: Protein Arginine Deiminase 1 (PAD1)-deiminated rHRNR2591–2684, Arg citrullinated (protein, UniProt Q86YZ3 2591-2684, looked up, fragment)
chain: B1 chain
modifications: PAD1-deiminated, arginines citrullinated
notes: Protein Arginine Deiminase 1 (PAD1)-deiminated rHRNR2591–2684, Arg citrullinated
trypsin; n = 3
  digestion by trypsin: digest
KLK7
  digestion by KLK7: digest
KLK1
  digestion by KLK1: digest
Lys-C; 500 ng, 0.7 nM protease, pH 7.5, 15 h, Western blot
  digestion by LysC: digest

B3: rHRNR2576–2707: recombinant HRNR fragment (protein, UniProt Q86YZ3 2576-2707, looked up, fragment)
chain: GFGHHESSSGQSSSYSQHGSGSGHSSGYGQHGSRSGQSSRGERHGSSSGSSSHYGQHGSGSRQSSGHGRQGSGSGQSPSRGRHGSGLGHSSSHGQHGSGSGRSSSRGPYESRLGHSSVFGQHESGSGHSSAY
C. albicans ATCC 24433; pH 5.5, 0.25% glucose
  LD90: 0.55 µg/mL
  LD100: >140 µg/mL
P. aeruginosa ATCC 10145; [13]
  LD90: 0.035 µg/mL
  LD100: 0.275 µg/mL
α-chymotrypsin
  sensitivity towards α-chymotrypsin: highly sensitive
trypsin; 10 µg, 18 h 37 °C, 100 pg to 0,1 pg trypsin (not modified), SDS-PAGE and HRNR Western blot, n = 3
  sensitivity towards trypsin: highly sensitive
trypsin; 10 µg, 18 h 37 °C, SDS-PAGE and HRNR Western blot
  amount of unmodified trypsin that digests: 1 pg
thermolysin
  sensitivity towards thermolysin: highly sensitive
Enterokinase EKMax
  sensitivity towards enterokinase EKMax: highly sensitive
Lys-C; 10 µg, 18 h 37 °C, 10 ng to 10 pg, SDS-PAGE and HRNR Western blot
  sensitivity towards Lys-C: highly sensitive
E. coli ATCC 11775; pH 5.5, 0.25% glucose
  LD90: 0.55 µg/mL
  LD100: >100 µg/mL
